Test results taken from PMC11850223.

Columns and labels:
Experiment in all cases: single-molecule FRET
[1] = biological target: T1, Hera_1-419_E115C_E227C/Hera_1-419 heterodimer (Thermus thermophilus, UniProt O07897;O07897 1-419;1-419, E115C;E227C)
T1 sequence 1: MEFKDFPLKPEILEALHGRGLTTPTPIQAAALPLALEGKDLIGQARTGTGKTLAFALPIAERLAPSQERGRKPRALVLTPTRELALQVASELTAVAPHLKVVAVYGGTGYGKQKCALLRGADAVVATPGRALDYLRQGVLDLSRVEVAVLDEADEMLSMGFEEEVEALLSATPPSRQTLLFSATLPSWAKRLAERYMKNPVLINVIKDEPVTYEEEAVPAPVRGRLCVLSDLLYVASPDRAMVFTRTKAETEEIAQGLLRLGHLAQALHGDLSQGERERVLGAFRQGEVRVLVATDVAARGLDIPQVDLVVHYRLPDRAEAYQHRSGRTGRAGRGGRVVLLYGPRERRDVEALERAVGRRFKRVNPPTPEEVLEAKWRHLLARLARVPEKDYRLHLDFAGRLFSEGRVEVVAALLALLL
T1 sequence 2: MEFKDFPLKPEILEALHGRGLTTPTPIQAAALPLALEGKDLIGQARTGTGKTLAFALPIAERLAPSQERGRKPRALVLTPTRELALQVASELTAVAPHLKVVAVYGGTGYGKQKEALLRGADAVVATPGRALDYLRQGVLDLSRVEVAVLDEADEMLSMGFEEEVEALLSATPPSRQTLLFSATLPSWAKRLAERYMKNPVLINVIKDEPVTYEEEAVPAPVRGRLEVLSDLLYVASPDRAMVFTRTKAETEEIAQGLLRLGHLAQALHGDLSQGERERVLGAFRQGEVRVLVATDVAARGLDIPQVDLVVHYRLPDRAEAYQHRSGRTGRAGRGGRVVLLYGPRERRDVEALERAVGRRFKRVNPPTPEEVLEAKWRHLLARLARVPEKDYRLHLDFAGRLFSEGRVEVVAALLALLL

Hera_E115C_E227C = biological target: T2, Hera_E115C_E227C (Thermus thermophilus, UniProt O07897 1-510, E115C;E227C)
T2 sequence: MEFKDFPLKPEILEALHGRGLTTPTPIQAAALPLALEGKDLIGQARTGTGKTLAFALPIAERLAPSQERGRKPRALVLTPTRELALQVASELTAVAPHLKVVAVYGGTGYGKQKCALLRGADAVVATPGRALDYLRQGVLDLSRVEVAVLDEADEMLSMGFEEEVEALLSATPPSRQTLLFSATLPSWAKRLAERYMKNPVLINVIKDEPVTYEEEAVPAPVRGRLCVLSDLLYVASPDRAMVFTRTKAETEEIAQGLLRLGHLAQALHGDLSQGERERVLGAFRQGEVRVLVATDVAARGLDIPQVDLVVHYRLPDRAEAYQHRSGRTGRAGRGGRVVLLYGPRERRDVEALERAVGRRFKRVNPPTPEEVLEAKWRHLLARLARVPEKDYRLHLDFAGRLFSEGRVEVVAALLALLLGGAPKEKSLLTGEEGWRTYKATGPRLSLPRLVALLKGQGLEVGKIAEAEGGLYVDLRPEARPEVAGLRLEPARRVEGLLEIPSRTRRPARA

[2] = biological target: T3, Hera/Hera_1-419 heterodimer, dye-labelled in cis (Thermus thermophilus, UniProt O07897;O07897 1-510;1-419, E115C;E227C)
T3 sequence 1: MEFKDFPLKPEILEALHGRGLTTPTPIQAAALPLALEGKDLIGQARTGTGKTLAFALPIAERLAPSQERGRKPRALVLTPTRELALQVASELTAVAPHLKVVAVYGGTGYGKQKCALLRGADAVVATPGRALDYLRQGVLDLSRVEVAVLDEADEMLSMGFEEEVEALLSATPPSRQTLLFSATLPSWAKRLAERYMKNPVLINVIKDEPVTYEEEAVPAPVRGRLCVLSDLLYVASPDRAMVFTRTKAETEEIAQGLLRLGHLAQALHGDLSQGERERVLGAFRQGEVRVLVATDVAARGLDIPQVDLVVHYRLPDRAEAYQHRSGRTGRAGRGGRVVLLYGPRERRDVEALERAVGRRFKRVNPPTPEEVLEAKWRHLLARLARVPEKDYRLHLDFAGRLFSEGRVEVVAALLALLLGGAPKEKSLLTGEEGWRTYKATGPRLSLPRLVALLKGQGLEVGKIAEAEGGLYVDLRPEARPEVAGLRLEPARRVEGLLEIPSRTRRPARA
T3 sequence 2: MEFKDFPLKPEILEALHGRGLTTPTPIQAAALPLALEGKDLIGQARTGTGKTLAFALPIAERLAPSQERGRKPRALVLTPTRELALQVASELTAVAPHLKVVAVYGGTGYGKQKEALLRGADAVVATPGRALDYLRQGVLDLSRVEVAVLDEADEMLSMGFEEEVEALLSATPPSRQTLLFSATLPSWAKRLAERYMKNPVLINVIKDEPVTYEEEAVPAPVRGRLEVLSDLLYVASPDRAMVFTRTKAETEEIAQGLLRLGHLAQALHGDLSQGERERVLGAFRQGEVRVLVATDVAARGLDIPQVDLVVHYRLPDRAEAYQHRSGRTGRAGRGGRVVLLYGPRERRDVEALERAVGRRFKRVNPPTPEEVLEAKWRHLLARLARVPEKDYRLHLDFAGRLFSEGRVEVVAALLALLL

[3] = biological target: T4, Hera/Hera_1-419 heterodimer, dye-labelled in trans (Thermus thermophilus, UniProt O07897;O07897 1-510;1-419, E115C;E227C)
T4 sequence 1: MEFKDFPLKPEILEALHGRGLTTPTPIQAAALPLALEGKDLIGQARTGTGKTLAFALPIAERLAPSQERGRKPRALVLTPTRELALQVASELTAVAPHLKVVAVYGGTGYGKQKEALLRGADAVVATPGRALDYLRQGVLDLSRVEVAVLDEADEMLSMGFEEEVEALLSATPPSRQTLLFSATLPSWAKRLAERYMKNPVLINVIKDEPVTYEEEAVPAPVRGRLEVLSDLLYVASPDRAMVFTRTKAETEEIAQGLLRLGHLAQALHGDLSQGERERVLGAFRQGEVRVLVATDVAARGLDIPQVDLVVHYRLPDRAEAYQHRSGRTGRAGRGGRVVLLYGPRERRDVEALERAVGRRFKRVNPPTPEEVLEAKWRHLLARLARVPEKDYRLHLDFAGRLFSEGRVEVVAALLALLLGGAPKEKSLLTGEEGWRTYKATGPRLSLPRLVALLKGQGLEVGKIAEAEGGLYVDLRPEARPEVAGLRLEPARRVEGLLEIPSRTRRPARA
T4 sequence 2: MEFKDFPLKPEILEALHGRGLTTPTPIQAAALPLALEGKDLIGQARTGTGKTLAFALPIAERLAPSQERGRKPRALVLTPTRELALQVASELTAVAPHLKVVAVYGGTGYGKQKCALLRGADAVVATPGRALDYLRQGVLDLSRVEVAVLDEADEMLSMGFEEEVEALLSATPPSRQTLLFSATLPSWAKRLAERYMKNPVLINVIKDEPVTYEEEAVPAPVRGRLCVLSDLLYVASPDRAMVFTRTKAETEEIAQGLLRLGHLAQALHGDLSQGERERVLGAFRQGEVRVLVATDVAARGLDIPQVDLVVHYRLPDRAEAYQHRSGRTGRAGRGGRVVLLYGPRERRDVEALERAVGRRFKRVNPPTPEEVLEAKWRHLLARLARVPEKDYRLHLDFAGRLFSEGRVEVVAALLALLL

Measured: binding result

GCAGGUCCCAAGGGUUGGGCUGUUCGCCCAUU (structured_RNA) [32mer (smFRET)]
binds: all assays above
